{"source": "patent US20140017249A1", "target": "IL-1 receptor (UniProt P14778)", "sequence (P14778 18-569 limits assumed)": "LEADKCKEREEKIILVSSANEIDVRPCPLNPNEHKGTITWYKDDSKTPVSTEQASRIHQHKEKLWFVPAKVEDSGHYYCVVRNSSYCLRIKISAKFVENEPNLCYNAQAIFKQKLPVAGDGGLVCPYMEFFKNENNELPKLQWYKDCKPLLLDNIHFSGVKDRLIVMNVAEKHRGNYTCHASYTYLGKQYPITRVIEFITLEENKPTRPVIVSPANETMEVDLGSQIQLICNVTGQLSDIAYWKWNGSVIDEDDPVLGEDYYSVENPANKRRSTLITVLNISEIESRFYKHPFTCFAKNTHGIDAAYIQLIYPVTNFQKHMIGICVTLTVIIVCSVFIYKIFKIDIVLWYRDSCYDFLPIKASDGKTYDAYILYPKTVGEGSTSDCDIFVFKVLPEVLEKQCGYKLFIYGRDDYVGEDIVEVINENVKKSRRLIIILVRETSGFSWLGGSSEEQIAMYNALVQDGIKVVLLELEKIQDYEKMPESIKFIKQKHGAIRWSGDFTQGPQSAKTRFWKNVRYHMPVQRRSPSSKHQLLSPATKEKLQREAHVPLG", "experiment": "cell-based or functional assay", "data": [{"substance": "Kineret® (anakinra) (from UniProt P18510 26-177) (ligand)", "values": [{"measurement": "IC50 (pM): inhibition of IL-8 released by IL-1β stimulation, human whole blood, 100 pM rhIL-1β", "value": 53.4, "unit": "pM"}]}]}
